For 120 sequences, switch fluorescence ratio results are on record in the supplement of paper PMC10126150.

± gives the standard deviation of the averaged measurements.

In this series the test system is ATP. In words: switch fluorescence ratio, 500 uM ATP over buffer (Cy3 cluster intensity, sum of 5 cycles each) (fold (ratio)); higher = stronger signal-on switching upon ATP binding; sequences stand for … in TCGTCGGCAGCGTCAGATGTGTATAAGAGACAGTTTTTTTTTTTTTTTTTTTTTTTTT…TC. The conditions noted are these: aptamer strand: ATP DNA aptamer (quencher-CACCTGGGGGAGTATTGCGGAGGAAGG + anchor), 100 nM annealed; ATP concentration: 500 uM. Summed up:
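After annealing to 100 nM quencher-labelled ATP aptamer, Cy3-labelled switching-strand clusters on a modified Illumina MiSeq flow-cell were imaged in selection buffer. A second image followed after 15 min with 500 uM ATP at 22 °C, and five such buffer/ATP cycles were done, each separated by NaOH stripping and re-annealing. The fluorescence ratio, averaged per switch-domain sequence, is summed target-cycle over summed buffer-cycle Cy3 intensity per cluster, with clusters outside 100-1000 RFU excluded.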
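Further: ATP exposure 15 min at 22 °C before imaging.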

As to GGATGGACAG, the switch fluorescence ratio amounted to 1 ± 0.01.

In the case of GGATGGATGG, the switch fluorescence ratio amounted to 0.993 ± 0.082.

Regarding GGATGGCTTC, the switch fluorescence ratio came out at 0.9987 ± 0.0023.

Consider GGATGGGCTG, for which the switch fluorescence ratio was 1 ± 0.094.

In the case of GGATGGGGGG, the switch fluorescence ratio was 0.986 ± 0.016.

With GGATGGGGGT, the switch fluorescence ratio worked out at 0.9972 ± 0.0097.

As for GGATGGGGTT, the switch fluorescence ratio was found to be 1 ± 0.018.

Take GGATGGGTGG: the switch fluorescence ratio stood at 0.99 ± 0.025.

On to GGATGGTGGA, for which the switch fluorescence ratio came out at 0.9966 ± 0.0093.

Consider GGATGGTGGT, for which the switch fluorescence ratio was found to be 1.01 ± 0.016.

On to GGATGTAAGA, for which the switch fluorescence ratio came to 1.1 ± 0.18.

In the case of GGATGTATAG, the switch fluorescence ratio was determined as 0.997 ± 0.052.

Regarding GGATTAAAGC, the switch fluorescence ratio is 0.998 ± 0.022.

With GGATTACTCT, the switch fluorescence ratio was determined as 1.0308 ± 0.00015.

For the sequence GGATTACTGG, the switch fluorescence ratio is 1.03 ± 0.023.

Take GGATTAGCTT: the switch fluorescence ratio was found to be 1.01 ± 0.051.

For GGATTAGGTG, the switch fluorescence ratio was 1.12 ± 0.017.

As to GGATTAGTGT, the switch fluorescence ratio came to 0.987 ± 0.032.

On to GGATTATCGG, for which the switch fluorescence ratio is 0.976 ± 0.023.

With GGATTATGTC, the switch fluorescence ratio amounted to 0.975 ± 0.039.

Turning to GGATTATTGG, the switch fluorescence ratio amounted to 1.002 ± 0.0083.

As to GGATTCAGCT, the switch fluorescence ratio amounted to 0.978 ± 0.027.

Turning to GGATTCGAAG, the switch fluorescence ratio came out at 0.9953 ± 0.0071.

Turning to GGATTCTAAT, the switch fluorescence ratio amounted to 0.982 ± 0.01.

Consider GGATTGATGT, for which the switch fluorescence ratio is 0.972 ± 0.011.

For GGATTGGGGA, the switch fluorescence ratio was found to be 1.02 ± 0.031.

With GGATTGGTTG, the switch fluorescence ratio was 0.999 ± 0.038.

Turning to GGATTGTAAG, the switch fluorescence ratio amounted to 0.991 ± 0.032.

GGATTGTAGG: the switch fluorescence ratio amounted to 0.9738 ± 0.0053.

Regarding GGATTGTATT, the switch fluorescence ratio was 1.02 ± 0.0055.

Consider GGATTGTGTT, for which the switch fluorescence ratio came to 0.985 ± 0.0018.

For GGATTGTTGG, the switch fluorescence ratio came out at 1.008 ± 0.0033.

As to GGATTGTTGT, the switch fluorescence ratio is 0.994 ± 0.022.

GGATTTACGC: the switch fluorescence ratio is 1.03 ± 0.03.

Take GGATTTCAGG: the switch fluorescence ratio was 0.982 ± 0.017.

For the sequence GGATTTCCAG, the switch fluorescence ratio stood at 0.999 ± 0.03.

Regarding GGATTTCTTA, the switch fluorescence ratio is 1 ± 0.025.

Turning to GGATTTGGTT, the switch fluorescence ratio was 1.04 ± 0.036.

For GGATTTGTGG, the switch fluorescence ratio stood at 0.978 ± 0.023.

As for GGCAAAAACG, the switch fluorescence ratio worked out at 1.16 ± 0.22.

Regarding GGCAAAGGGT, the switch fluorescence ratio is 1.06 ± 0.056.

As for GGCAACTGGG, the switch fluorescence ratio was found to be 1.02 ± 0.05.

Consider GGCACAGGGG, for which the switch fluorescence ratio was 1.91 ± 0.17.

As to GGCACGTGGG, the switch fluorescence ratio stood at 0.999 ± 0.017.

Turning to GGCACTAGGG, the switch fluorescence ratio was determined as 0.94 ± 0.077.

Consider GGCAGAGTGT, for which the switch fluorescence ratio was found to be 1 ± 0.063.

Turning to GGCAGGGGAA, the switch fluorescence ratio was 1.01 ± 0.012.

As to GGCAGTGCGG, the switch fluorescence ratio is 1 ± 0.06.

Regarding GGCATAGTTT, the switch fluorescence ratio is 0.969 ± 0.026.

As for GGCATATCGT, the switch fluorescence ratio is 0.949 ± 0.041.

Consider GGCATATGTA, for which the switch fluorescence ratio is 0.9829 ± 0.0076.

With GGCATCCAGG, the switch fluorescence ratio is 1.38 ± 0.064.

Take GGCATGAGAC: the switch fluorescence ratio worked out at 1.06 ± 0.047.

For the sequence GGCATGGTGG, the switch fluorescence ratio came to 1.01 ± 0.023.

In the case of GGCATTATAG, the switch fluorescence ratio was 0.999 ± 0.0097.

As to GGCATTGGAT, the switch fluorescence ratio came out at 0.962 ± 0.034.

Turning to GGCCAAGGTC, the switch fluorescence ratio is 1.004 ± 0.004.

For the sequence GGCCAAGGTG, the switch fluorescence ratio worked out at 2.05 ± 0.42.

For the sequence GGCCACTGGA, the switch fluorescence ratio stood at 1.02 ± 0.021.

For the sequence GGCCAGGGGG, the switch fluorescence ratio stood at 1 ± 0.09.

As for GGCCATCTGG, the switch fluorescence ratio amounted to 1.04 ± 0.026.

For the sequence GGCCCACCCA, the switch fluorescence ratio was determined as 1.02 ± 0.072.

GGCCCAGAAA: the switch fluorescence ratio is 1.003 ± 0.0097.

As for GGCCCCTATT, the switch fluorescence ratio amounted to 1.023 ± 0.01.

Regarding GGCCCGGGGC, the switch fluorescence ratio amounted to 0.995 ± 0.017.

For GGCCCGGGGG, the switch fluorescence ratio was determined as 1.01 ± 0.028.

As for GGCCCGGTGC, the switch fluorescence ratio stood at 1.08 ± 0.12.

GGCCCTACAG: the switch fluorescence ratio stood at 1.01 ± 0.036.

For GGCCCTGCAG, the switch fluorescence ratio was found to be 1.02 ± 0.042.

Consider GGCCGAATGG, for which the switch fluorescence ratio stood at 1.03 ± 0.043.

With GGCCGAGCTC, the switch fluorescence ratio is 1.012 ± 0.0085.

For GGCCGCACGC, the switch fluorescence ratio came to 3.69 ± 0.059.

As to GGCCGGGGGA, the switch fluorescence ratio amounted to 1.03 ± 0.069.

Take GGCCGGGTTC: the switch fluorescence ratio was 1.01 ± 0.022.

For the sequence GGCCGGTGGA, the switch fluorescence ratio was found to be 1.02 ± 0.038.

As to GGCCGGTTGG, the switch fluorescence ratio came out at 0.9744 ± 0.0068.

Regarding GGCCGTAGAA, the switch fluorescence ratio was 0.985 ± 0.032.

As for GGCCGTTCAT, the switch fluorescence ratio is 0.972 ± 0.011.

GGCCTAAAGG: the switch fluorescence ratio came out at 1.005 ± 0.0082.

Regarding GGCCTCGACC, the switch fluorescence ratio was 1.03 ± 0.0086.

With GGCCTGCCAT, the switch fluorescence ratio is 0.9813 ± 0.0095.

Regarding GGCGAAAACT, the switch fluorescence ratio worked out at 1.073 ± 0.0052.

Regarding GGCGAAGTGC, the switch fluorescence ratio came out at 1.03 ± 0.013.

With GGCGAGTGAG, the switch fluorescence ratio is 1.03 ± 0.029.

As to GGCGAGTTT, the switch fluorescence ratio amounted to 1 ± 0.021.

Consider GGCGATGGGG, for which the switch fluorescence ratio was found to be 0.979 ± 0.023.

On to GGCGATTGCG, for which the switch fluorescence ratio amounted to 0.979 ± 0.0041.

For the sequence GGCGATTGGA, the switch fluorescence ratio stood at 1 ± 0.016.

Take GGCGATTTTG: the switch fluorescence ratio was found to be 0.958 ± 0.03.

As to GGCGCAGCAA, the switch fluorescence ratio came to 1.47 ± 0.091.

Regarding GGCGCATAGG, the switch fluorescence ratio is 1.11 ± 0.02.

For GGCGCATGTC, the switch fluorescence ratio stood at 1.14 ± 0.029.

With GGCGCGATGG, the switch fluorescence ratio was found to be 1.55 ± 0.13.

Regarding GGCGCTTAGA, the switch fluorescence ratio came to 1 ± 0.053.

GGCGGAGGGT: the switch fluorescence ratio amounted to 0.986 ± 0.03.

On to GGCGGATTGG, for which the switch fluorescence ratio is 1.02 ± 0.015.

As to GGCGGCATGG, the switch fluorescence ratio came to 1.04 ± 0.023.

For GGCGGCTGAG, the switch fluorescence ratio came to 1 ± 0.067.

With GGCGGGACGA, the switch fluorescence ratio amounted to 0.973 ± 0.036.

GGCGGGAGGG: the switch fluorescence ratio stood at 0.986 ± 0.029.

Take GGCGGGGAAA: the switch fluorescence ratio came out at 0.981 ± 0.045.

Take GGCGGGGGAC: the switch fluorescence ratio worked out at 0.987 ± 0.057.

As to GGCGGGGGCA, the switch fluorescence ratio was determined as 0.995 ± 0.024.

Turning to GGCGGGGGCT, the switch fluorescence ratio came out at 0.99 ± 0.018.

On to GGCGGGTGAG, for which the switch fluorescence ratio was found to be 1.03 ± 0.025.

As for GGCGGTAATG, the switch fluorescence ratio was 1.036 ± 0.005.

As for GGCGGTAGTG, the switch fluorescence ratio came out at 0.999 ± 0.025.

Turning to GGCGGTATAT, the switch fluorescence ratio is 0.99 ± 0.027.

Consider GGCGGTATGT, for which the switch fluorescence ratio was 0.975 ± 0.028.

As for GGCGTAAATG, the switch fluorescence ratio is 1.02 ± 0.0066.

GGCGTAATAT: the switch fluorescence ratio is 1.54 ± 0.085.

Regarding GGCGTAGGCC, the switch fluorescence ratio came to 1.2 ± 0.29.

Regarding GGCGTATATG, the switch fluorescence ratio was found to be 0.973 ± 0.027.

Take GGCGTGATGC: the switch fluorescence ratio was determined as 1.091 ± 0.0076.

For the sequence GGCGTGCGTA, the switch fluorescence ratio worked out at 1.01 ± 0.026.

GGCGTTCTTG: the switch fluorescence ratio was 0.962 ± 0.015.

Turning to GGCGTTGGCT, the switch fluorescence ratio is 0.985 ± 0.011.

For GGCTAACAAG, the switch fluorescence ratio worked out at 1.01 ± 0.02.

Take GGCTAAGAAT: the switch fluorescence ratio was 1.03 ± 0.058.

On to GGCTAAGGGG, for which the switch fluorescence ratio came out at 0.992 ± 0.023.
